These results are taken from PMC6798810.

Test in all cases: EMSA
Details in all cases: EMSA: 15 ng/uL PCR product, 0.01-0.6 uM His-tagged protein, 45 min; MHQ 30 min, then DTT 30 min; buffer, pH and temperature not given (cited to ref. 44)

In data set [1] the test system is T1, MhqR (Staphylococcus aureus COL), ORF:0a4449b0.
T1 sequence: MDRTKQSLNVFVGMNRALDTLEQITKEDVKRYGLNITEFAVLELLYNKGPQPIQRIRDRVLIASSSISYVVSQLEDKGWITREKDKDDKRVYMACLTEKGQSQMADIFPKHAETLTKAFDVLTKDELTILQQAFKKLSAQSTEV

The subject of data set [2] is T2, MhqR C95A C95A (Staphylococcus aureus COL), ORF:0a4449b0.
T2 sequence: T1 sequence with C95A

The test system of data set [3] is MhqR (Staphylococcus aureus COL).
Data set [4] has as its system MhqR C95A (Staphylococcus aureus COL).

Residue numbers refer to the chain shown, from its start.

“ACATATCAACTCCTATCATGATTGATTATAGTATTTCCCTATTCTATTTTAACTTAAACGAAGTCAAAGGTGCATGACAGTCATGTGACGACATTGCCACATCTATGTAGTCGTTTTTATTAAGCACAGTTTGAAATGAAGATGAAAACACGTATCTTGACATTAAATCTATTCAGTTATATAATTTATCCCTAAATCGAAATAAAATAAAAAAGTTGGTGATCATATGGATCGAACG (double strand) [PmhqRED m1]”: in data set [1], the binding result is “no binding”.

With “ACATATCAACTCCTATCATGATTGATTATAGTATTTCCCTATTCTATTTTAACTTAAACGAAGTCAAAGGTGCATGACAGTCATGTGACGACATTGCCACATCTATGTAGTCGTTTTTATTAAGCACAGTTTGAAATGAAGATGAAAACACGTATCTTGACATTAAATCTATTCAGTTATATAATTTATCTCGAAATAGGAATAAAATAAAAAAGTTGGTGATCATATGGATCGAACG (double strand) [PmhqRED m2]”, the binding entry in data set [1] is “no binding”.

Take “ACATATCAACTCCTATCATGATTGATTATAGTATTTCCCTATTCTATTTTAACTTAAACGAAGTCAAAGGTGCATGACAGTCATGTGACGACATTGCCACATCTATGTAGTCGTTTTTATTAAGCACAGTTTGAAATGAAGATGAAAACACGTATCTTGACATTAAATCTATTCAGTTATATAATTTATCTCGAAATCGAAATAAAATAAAAAAGTTGGTGATCATATGGATCGAACG (double strand) [PmhqRED promoter probe]”: the figures for the Kd in data set [1] and in data set [2] were 7.38 nM and 14.2 nM, respectively.

Regarding PmhqRED promoter probe, the results for the Kd in data set [3] and in data set [4] were 7.38 nM and 14.2 nM, respectively.
